Biological target: HLA-A*02:01 (Homo sapiens, UniProt P04439, D140Y/D185E/D98H/E176V/E277Q/G131W/G231S/I119V/I121R/I166T/I218V/L300P/L318F/N151K/N90K/P208A/P217A/Q86G/Q94H/R138H/R169H/T345S)
Assay: MHC binding assay (UV-ligand exchange, ELISA, peptide exchange yield)
Settings: binding of HLA-class I restricted peptides to HLA-A*02:01
How it was run: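 Peptide–HLA-A*02:01 complexes made by UV-ligand exchange of a UV-cleavable peptide for the test peptide. Exchange yield measured by ELISA: 100-fold diluted monomers captured on streptavidin, 1 h at 37° C., detected with HRP anti-β2m and TMB, absorbance at 450 nm.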

Row | Peptide exchange (MHC class I binding score, peptide exchange yield) | Substance
1 | ″+++″ (≥50% = +++) | 175 (YLFENISQL; listed as Homo sapiens) [compound 175]
2 | ″+++″ (≥50% = +++) | 485 (NVPDSFNEV; listed as Homo sapiens) [compound 485]
3 | ″++″ (≥20% = ++) | 84 (VTFGEKLLGV; listed as Homo sapiens) [compound 84]
4 | ″++″ (≥20% = ++) | 385 (SLLEQGLVEA; listed as Homo sapiens) [compound 385]
5 | ″++″ (≥20% = ++) | 47 (ILLSVPLLVV; listed as Homo sapiens) [compound 47]
6 | ″++++″ (≥75% = ++++) | 349 (SLTEYLQNV; listed as Homo sapiens) [compound 349]
7 | ″++++″ (≥75% = ++++) | 168 (KILDADIQL; listed as Homo sapiens) [compound 168]
8 | ″+++″ (≥50% = +++) | 563 (WLLPYNGVTV; listed as Homo sapiens) [compound 563]
9 | ″+++″ (≥50% = +++) | 214 (FLLDLDPLLL; listed as Homo sapiens) [compound 214]
10 | ″+++″ (≥50% = +++) | 521 (MLLTKLPTI; listed as Homo sapiens) [compound 521]
11 | ″+++″ (≥50% = +++) | 161 (ALLEGVNTV; listed as Homo sapiens) [compound 161]
12 | ″+++″ (≥50% = +++) | 201 (RLVDYLEGI; listed as Homo sapiens) [compound 201]
13 | ″+++″ (≥50% = +++) | 262 (LLWGDLIWL; listed as Homo sapiens) [compound 262]
14 | ″+++″ (≥50% = +++) | 593 (GLPRFGIEMV; listed as Homo sapiens) [compound 593]
15 | ″+++″ (≥50% = +++) | 193 (QLLDADGFLNV; listed as Homo sapiens) [compound 193]
16 | ″+++″ (≥50% = +++) | 367 (SLQNHNHQL; listed as Homo sapiens) [compound 367]
17 | ″++++″ (≥75% = ++++) | 466 (VLIANLEKL; listed as Homo sapiens) [compound 466]
18 | ″+++″ (≥50% = +++) | 246 (LLWEVVSQL; listed as Homo sapiens) [compound 246]
19 | ″+++″ (≥50% = +++) | 595 (VLLSIYPRV; listed as Homo sapiens) [compound 595]
20 | ″+++″ (≥50% = +++) | 165 (SLLDEIRAV; listed as Homo sapiens) [compound 165]
21 | ″++″ (≥20% = ++) | 172 (VLYSYTIITV; listed as Homo sapiens) [compound 172]
22 | ″+++″ (≥50% = +++) | 299 (YLLETSGNL; listed as Homo sapiens) [compound 299]
23 | ″++″ (≥20% = ++) | 140 (YMDAPKAAL; listed as Homo sapiens) [compound 140]
24 | ″+++″ (≥50% = +++) | 506 (KLLGKVETA; listed as Homo sapiens) [compound 506]

The next lines start with the substance.

Row | Substance | Peptide exchange (MHC class I binding score, peptide exchange yield)
25 | 230 (ILVDWLVEV; listed as Homo sapiens) [compound 230] | ″+″ (≥10% = +)
26 | 14 (AAYGGLNEKSFV; listed as Homo sapiens) [compound 14] | ″+++″ (≥50% = +++)
27 | 138 (YQYPRAILSV; listed as Homo sapiens) [compound 138] | ″+++″ (≥50% = +++)
28 | 12 (SLWPDPMEV; listed as Homo sapiens) [compound 12] | ″+++″ (≥50% = +++)
29 | 566 (VIADGGIQNV; listed as Homo sapiens) [compound 566] | ″++″ (≥20% = ++)
30 | 516 (AVGPASILKEV; listed as Homo sapiens) [compound 516] | ″++″ (≥20% = ++)
31 | 393 (GLLDTQTSQVLTA; listed as Homo sapiens) [compound 393] | ″++″ (≥20% = ++)
32 | 308 (SQYSGQLHEV; listed as Homo sapiens) [compound 308] | ″+++″ (≥50% = +++)
33 | 114 (SLVGEPILQNV; listed as Homo sapiens) [compound 114] | ″++″ (≥20% = ++)
34 | 173 (LLDSASAGLYL; listed as Homo sapiens) [compound 173] | ″+++″ (≥50% = +++)
35 | 390 (ALFMKQIYL; listed as Homo sapiens) [compound 390] | ″+++″ (≥50% = +++)
36 | 304 (MTLGQIYYL; listed as Homo sapiens) [compound 304] | ″+++″ (≥50% = +++)
37 | 606 (ALWETEVYI; listed as Homo sapiens) [compound 606] | ″+++″ (≥50% = +++)
38 | 621 (VLMDRLPSLL; listed as Homo sapiens) [compound 621] | ″++++″ (≥75% = ++++)
39 | 107 (FLQPVDDTQHL; listed as Homo sapiens) [compound 107] | ″+++″ (≥50% = +++)
40 | 465 (QLCDLNAEL; listed as Homo sapiens) [compound 465] | ″+++″ (≥50% = +++)
41 | 160 (FLFDEEIEQI; listed as Homo sapiens) [compound 160] | ″+++″ (≥50% = +++)
42 | 25 (FLPDEPYIKV; listed as Homo sapiens) [compound 25] | ″+++″ (≥50% = +++)
43 | 488 (FLAEDPKVTL; listed as Homo sapiens) [compound 488] | ″+++″ (≥50% = +++)
44 | 315 (YLQDVVEQA; listed as Homo sapiens) [compound 315] | ″+++″ (≥50% = +++)
45 | 376 (AMFESSQNVLL; listed as Homo sapiens) [compound 376] | ″++″ (≥20% = ++)

Row | Substance | Peptide exchange (MHC class I binding score, peptide exchange yield)
46 | 347 (SLFKHDPAAWEA; listed as Homo sapiens) [compound 347] | ″++++″ (≥75% = ++++)
47 | 82 (FLSSVTYNL; listed as Homo sapiens) [compound 82] | ″+++″ (≥50% = +++)
48 | 83 (ILAPTVMMI; listed as Homo sapiens) [compound 83] | ″+++″ (≥50% = +++)
49 | 41 (SLMPHIPGL; listed as Homo sapiens) [compound 41] | ″+++″ (≥50% = +++)
50 | 97 (SLINGSFLV; listed as Homo sapiens) [compound 97] | ″+++″ (≥50% = +++)
51 | 357 (SMHDLVLQV; listed as Homo sapiens) [compound 357] | ″+++″ (≥50% = +++)
52 | 73 (NIFDLQIYV; listed as Homo sapiens) [compound 73] | ″+++″ (≥50% = +++)
53 | 589 (KLYPQLPAEI; listed as Homo sapiens) [compound 589] | ″+++″ (≥50% = +++)
54 | 512 (SLSEIVPCL; listed as Homo sapiens) [compound 512] | ″+++″ (≥50% = +++)
55 | 438 (KLLPLAGLYL; listed as Homo sapiens) [compound 438] | ″++++″ (≥75% = ++++)
56 | 451 (LLLLDTVTMQV; listed as Homo sapiens) [compound 451] | ″++″ (≥20% = ++)
57 | 281 (ILRESTEEL; listed as Homo sapiens) [compound 281] | ″+++″ (≥50% = +++)
58 | 57 (TLAELQPPVQL; listed as Homo sapiens) [compound 57] | ″+++″ (≥50% = +++)
59 | 90 (TLLQIIETV; listed as Homo sapiens) [compound 90] | ″+++″ (≥50% = +++)
60 | 86 (NLIGKIENV; listed as Homo sapiens) [compound 86] | ″+++″ (≥50% = +++)
61 | 617 (ALMYESEKVGV; listed as Homo sapiens) [compound 617] | ″+++″ (≥50% = +++)
62 | 10 (FLATFPLAAV; listed as Homo sapiens) [compound 10] | ″++++″ (≥75% = ++++)
63 | 528 (SVAEGRALMSV; listed as Homo sapiens) [compound 528] | ″+++″ (≥50% = +++)
64 | 318 (GLINTGVLSV; listed as Homo sapiens) [compound 318] | ″++″ (≥20% = ++)
65 | 316 (ILLERLWYV; listed as Homo sapiens) [compound 316] | ″+++″ (≥50% = +++)
66 | 341 (SQIALNEKLVNL; listed as Homo sapiens) [compound 341] | ″+++″ (≥50% = +++)
